The chains are these.
B1: VH 115 (VHH)
VHH: EVQLVESGGGLVQPGGSLRLSCKGSGFTFGDYAIGWVRQAPGQRLEWIGWINTNSGSPKYAQGFTGRFTISRDNSKNTLYLQMNSLRAEDTAVYYCATDVVVPWGQGSQVTVSS
notes: Human single VH domain antibody (not a camelid VHH); source: E.coli TopF expression system, purified on Ni-NTA columns
B2: VH-Fc 115 (Fc fusion, human)
VH: B1 VHH
notes: VH cloned into the pcDNA-IgG1 Fc vector; source: Expi293, transiently transfected, purified by protein A resin; not shown: Fc (human IgG1), C-terminal, kept
B3: VH 3 (VHH)
VHH: EVQLVESGGGLVQPGGSLRLSCAASGFTFSRYWMSWVRQAPGKALEWIGEINHSGSTNYNPSLKSLVTISRDNSKNTLYLQMNSLRAEDTATYYCARSLVPALSYYYYYGMDVWGQGTTVTVSS
notes: Human single VH domain antibody (not a camelid VHH); Monomeric by SEC; also called clone 3; anti-uPAR VH 3; source: E.coli TopF expression system, purified on Ni-NTA columns
B4: VH-Fc 3 (Fc fusion, human)
VH: B3 VHH
notes: VH 3 domain, as m1; VH cloned into the pcDNA-IgG1 Fc vector; source: Expi293, transiently transfected, purified by protein A resin; not shown: Fc (human IgG1), C-terminal, kept

T1 sequence (Q03405 23-305): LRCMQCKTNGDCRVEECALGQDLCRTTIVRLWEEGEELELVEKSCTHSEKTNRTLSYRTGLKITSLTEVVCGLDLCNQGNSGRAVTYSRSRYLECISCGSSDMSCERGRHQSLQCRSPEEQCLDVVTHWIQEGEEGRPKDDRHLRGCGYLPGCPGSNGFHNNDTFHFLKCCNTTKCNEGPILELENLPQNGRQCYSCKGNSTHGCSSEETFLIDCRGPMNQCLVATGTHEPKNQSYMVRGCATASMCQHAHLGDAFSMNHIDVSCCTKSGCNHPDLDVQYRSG

The first series addresses T1, Human uPAR-His recombinant protein (human, UniProt Q03405 23-305).
T1 construct: also called recombinant human uPAR; CD87; source: bought: R&D system
In words: ELISA; uPAR-His coated at 50 ng/well at 4°C overnight; 3-fold serially diluted binders 1 hour at 37°C; VH detected by anti-FLAG M2-HRP, VH-Fc or DbTE by HRP goat anti-human IgG1 Fc. To be noted: both partners purified. (In general: In an ELISA, binding on a coated surface is turned into a signal by an enzyme label.)
Take B1: the half-maximal effective concentration (EC50) – broadly, the midpoint of the concentration-response curve – was found to be 34.2 ± 3.5 nM.
Regarding B2, the EC50 was found to be 6.6 ± 0.2 nM.
On the same count and under the same terms, in the case of B3 it was 12.1 ± 0.8 nM.
On the same count and under the same terms, under B4 stands 64.3 ± 2.3 nM.

The target in a further series is T2, recombinant uPAR-Biotin (human, UniProt Q03405 23-305, biotin).
T2 construct: May be one of the bought proteins (uPAR-His or uPAR-Fc) after biotinylation
T2 sequence (Q03405 23-305): as above
The experiment in a line: BLI; BLItz; streptavidin biosensors coated with 16.7 μg/mL recombinant uPAR-Biotin; 400nM, 200nM and 100nM of VH, VH-Fc, DbTE, association 2 min; dissociation in DPBS 4 min. To be noted: both partners purified. A general note: In BLI a coated tip is dipped into the sample, and binding shifts an interference pattern.
For B1, the dissociation constant Kd (usually the concentration at which binding is half-saturated) was 1.7 nM; the koff (commonly the rate constant with which the complex falls apart) stood at 3.6e-05 s⁻¹; the association rate constant (kon) – broadly, the rate constant with which the complex forms – is 21000 M⁻¹ s⁻¹.
The corresponding values for B2 are 71.1 nM, 0.0024 s⁻¹ and 33000 M⁻¹ s⁻¹.
As to B3, the Kd is 17.1 nM, the off-rate (koff) was found to be 0.0014 s⁻¹ and the association rate constant (kon) amounted to 79000 M⁻¹ s⁻¹.
B4: the Kd came out at 9.6 nM, the koff is 0.0012 s⁻¹ and the kon was determined as 120000 M⁻¹ s⁻¹.

The next series concerns the molecule itself. The experiment in a line: SEC; Superdex 200 Increase 10/300 GL; 200 μg of filtered antibody; DPBS, 0.5 mL/min; size from molecular weight calibration curves.
Details: not given
On the technique in general: Size exclusion chromatography separates by hydrodynamic size, large species first.
B1: the stoichiometry N (commonly a count of units in the complex or per binding partner) was 2.
Consider B2, for which the “stoichiometry N” value turned out to be 2.

(Values after publication PMC10593477 (Frontiers in Oncology, 2023).)
